For this test, the target named is T1, human MacroD2 macrodomain (aa 7–243), wild type (human, UniProt A1Z1Q3 7-243).
T1 sequence (looked up): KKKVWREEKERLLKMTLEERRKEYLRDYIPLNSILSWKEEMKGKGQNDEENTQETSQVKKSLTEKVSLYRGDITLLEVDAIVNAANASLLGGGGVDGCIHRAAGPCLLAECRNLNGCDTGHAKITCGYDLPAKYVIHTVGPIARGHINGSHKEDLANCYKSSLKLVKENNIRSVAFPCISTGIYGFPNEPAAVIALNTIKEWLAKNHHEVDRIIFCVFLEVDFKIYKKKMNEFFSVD
Description: pull-down.

B1: GST-PARP10 catalytic domain (aa 818–1025), ADP-ribosylated (domain or fragment, UniProt Q53GL7 818-1025, looked up)
chain: NNLERLAENTGEFQEVVRAFYDTLDAARSSIRVVRVERVSHPLLQQQYELYRERLLQRCERRPVEQVLYHGTTAPAVPDICAHGFNRSFCGRNATVYGKGVYFARRASLSVQDRYSPPNADGHKAVFVARVLTGDYGQGRRGLRAPPLRGPGHVLLRYDSAVDCICQPSIFVIFHDTQALPTHLITCEHVPRASPDDPSGLPGRSPDT
modifications: mono-ADP-ribosylated (automodified; single ADPr units on glutamate residues); sites not stated
Regarding B1, the binding result was “binds”.

Source of the values: article PMC7097781 (Nature Structural & Molecular Biology, 2013).
